± gives the standard error. For part of these data: Fewer inactive variants are shown than the library holds.
B1: glmS ribozyme (parent)
chain: AUAAAAGCGCCAGAACUACAGAAAUGUAGUUGACGAGGAGGAGGUUUAUCGAAUUUUCGGCGGAUGCCUCCAAA

Tests used:
Settings in all cases: with glucosamine-6-phosphate
glucosamine-6-phosphate [1] = variants of: B1; assay: kcat; higher = faster cleavage; RNA array
Outline: (§1)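 E. coli RNA polymerase transcribed barcoded ribozyme variants in situ on sequenced MiSeq chips, which were tracked via a hybridised Cy3 probe at 37 °C. Tiles were imaged over ~14 h after glucosamine-6-phosphate (40 μM to 10 mM) in HEPES/KCl/Mg(OAc)2 buffer was flowed in. Normalised per-tile medians were fit to one- or two-exponential decays for kobs, and kcat and KM came from weighted Michaelis–Menten fits.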

glucosamine-6-phosphate [2] = variants of: B1; assay: KM; higher = weaker cofactor use; RNA array
Outline: as §1

glucosamine-6-phosphate [3] = variants of: B1; assay: self-cleavage kobs at 2500 uM GlcN6P; higher = faster cleavage; RNA array
Outline: as §1

glucosamine-6-phosphate [4] = variants of: B1; assay: self-cleavage kobs at 10000 uM GlcN6P; higher = faster cleavage; RNA array
Outline: as §1

glucosamine-6-phosphate [5] = variants of: B1; assay: self-cleavage kobs at 40 uM GlcN6P; higher = faster cleavage; RNA array
Outline: as §1

glucosamine-6-phosphate [6] = variants of: B1; assay: self-cleavage kobs at 160 uM GlcN6P; higher = faster cleavage; RNA array
Outline: as §1

glucosamine-6-phosphate [7] = variants of: B1; assay: self-cleavage kobs at 640 uM GlcN6P; higher = faster cleavage; RNA array
Outline: as §1

AUAAAAGCGCCAGAACUACAGAAAUGUAGUUGACGAGGAGCAGGUAUAUCGAAUUUUCGGCGGAUGCCUCCAAA [G41C U46A]
kcat (glucosamine-6-phosphate [1]): 0.00012 ± 1.2e-05 s⁻¹ | KM (glucosamine-6-phosphate [2]): 3110 ± 830 µM | self-cleavage kobs at 2500 uM GlcN6P (glucosamine-6-phosphate [3]): 5.8e-05 ± 1.3e-05 s⁻¹ | self-cleavage kobs at 10000 uM GlcN6P (glucosamine-6-phosphate [4]): 9.03e-05 ± 1.3e-05 s⁻¹

AUAAAAGCGCCAGAACUACAGAAAUGUAGUUGACGAGGAGCAGGUGUAUCGAAUUUUCGGCGGAUGCCUCCAAA [G41C U46G]
kcat (glucosamine-6-phosphate [1]): 0.000114 ± 3.4e-06 s⁻¹ | KM (glucosamine-6-phosphate [2]): 2060 ± 210 µM | self-cleavage kobs at 2500 uM GlcN6P (glucosamine-6-phosphate [3]): 6.37e-05 ± 1.1e-05 s⁻¹ | self-cleavage kobs at 10000 uM GlcN6P (glucosamine-6-phosphate [4]): 9.41e-05 ± 1e-05 s⁻¹

AUAAAAGCGCCAGAACUACAGAAAUGUAGUUGACGAGGAGUAGGUUUAUCGAAGUUUCGGCGGAUGCCUCCAAA [G41U U54G]
kcat (glucosamine-6-phosphate [1]): 0.000782 ± 0.00031 s⁻¹ | self-cleavage kobs at 40 uM GlcN6P (glucosamine-6-phosphate [5]): 0.000133 ± 1.6e-05 s⁻¹ | self-cleavage kobs at 160 uM GlcN6P (glucosamine-6-phosphate [6]): 0.000463 ± 0.00012 s⁻¹ | self-cleavage kobs at 640 uM GlcN6P (glucosamine-6-phosphate [7]): 0.000458 ± 9.3e-05 s⁻¹ | self-cleavage kobs at 2500 uM GlcN6P (glucosamine-6-phosphate [3]): 0.00134 ± 0.00026 s⁻¹

AUAAAAGCGCCAGAACUACAGAAAUGUAGUUGACGAGGAGCAGGUUUAUCGAAUUUUCGGCGGAUGCCUCGAAA [G41C C71G]
kcat (glucosamine-6-phosphate [1]): 6.73e-05 ± 1.3e-05 s⁻¹ | self-cleavage kobs at 2500 uM GlcN6P (glucosamine-6-phosphate [3]): 6.12e-05 ± 7.2e-06 s⁻¹ | self-cleavage kobs at 10000 uM GlcN6P (glucosamine-6-phosphate [4]): 5.71e-05 ± 4.9e-06 s⁻¹

AUAAAAGCGCCAGAACUACAGAAAUGUAGUUGACGAGGAGUAGGUUUAUCGAAUUUUCGGCGGAUGCCUUCAAA [G41U C70U]
kcat (glucosamine-6-phosphate [1]): 0.0009 ± 0.00017 s⁻¹ | self-cleavage kobs at 40 uM GlcN6P (glucosamine-6-phosphate [5]): 0.000457 ± 3.9e-05 s⁻¹ | self-cleavage kobs at 160 uM GlcN6P (glucosamine-6-phosphate [6]): 0.000709 ± 0.0001 s⁻¹ | self-cleavage kobs at 640 uM GlcN6P (glucosamine-6-phosphate [7]): 0.000714 ± 0.00011 s⁻¹ | self-cleavage kobs at 2500 uM GlcN6P (glucosamine-6-phosphate [3]): 0.00131 ± 0.00021 s⁻¹

AUAAAAGCGCCAGAACUACAGAAAUGUAGUUGACGAGGAGUAGGUUUAUCGAAUUUUCGGCGGAUGCCUACAAA [G41U C70A]
kcat (glucosamine-6-phosphate [1]): 0.0306 ± 0.013 s⁻¹ | self-cleavage kobs at 40 uM GlcN6P (glucosamine-6-phosphate [5]): 0.00288 ± 0.00022 s⁻¹ | self-cleavage kobs at 160 uM GlcN6P (glucosamine-6-phosphate [6]): 0.00721 ± 0.0009 s⁻¹ | self-cleavage kobs at 640 uM GlcN6P (glucosamine-6-phosphate [7]): 0.0189 ± 0.0026 s⁻¹ | self-cleavage kobs at 2500 uM GlcN6P (glucosamine-6-phosphate [3]): 0.0568 ± 0.016 s⁻¹

AUAAAAGCGCCAGAACUACAGAAAUGUAGUUGACGAGGAGUAGGUUUAUCGAAUUAUCGGCGGAUGCCUCCAAA [G41U U56A]
kcat (glucosamine-6-phosphate [1]): 0.00219 ± 0.00072 s⁻¹ | KM (glucosamine-6-phosphate [2]): 4700 ± 2000 µM | self-cleavage kobs at 40 uM GlcN6P (glucosamine-6-phosphate [5]): 3.42e-05 ± 8.2e-06 s⁻¹ | self-cleavage kobs at 160 uM GlcN6P (glucosamine-6-phosphate [6]): 7.37e-05 ± 1.6e-05 s⁻¹ | self-cleavage kobs at 640 uM GlcN6P (glucosamine-6-phosphate [7]): 0.000234 ± 3.5e-05 s⁻¹ | self-cleavage kobs at 2500 uM GlcN6P (glucosamine-6-phosphate [3]): 0.000769 ± 0.0001 s⁻¹ | self-cleavage kobs at 10000 uM GlcN6P (glucosamine-6-phosphate [4]): 0.00153 ± 0.00029 s⁻¹

AUAAAAGCGCCAGAACUACAGAAAUGUAGUUGACGAGGAGCAGGUUAAUCGAAUUUUCGGCGGAUGCCUCCAAA [G41C U47A]
kcat (glucosamine-6-phosphate [1]): 0.000354 ± 1.6e-05 s⁻¹ | KM (glucosamine-6-phosphate [2]): 4510 ± 420 µM | self-cleavage kobs at 640 uM GlcN6P (glucosamine-6-phosphate [7]): 4.21e-05 ± 1.2e-05 s⁻¹ | self-cleavage kobs at 2500 uM GlcN6P (glucosamine-6-phosphate [3]): 0.000134 ± 2.8e-05 s⁻¹ | self-cleavage kobs at 10000 uM GlcN6P (glucosamine-6-phosphate [4]): 0.000243 ± 2.7e-05 s⁻¹

AUAAAAGCGCCAGAACUACAGAAAUGUAGUUGACGAGGAGCAGGUUUAUCGAAUUUUCGGCGGAUGCCUUCAAA [G41C C70U]
kcat (glucosamine-6-phosphate [1]): 0.000551 ± 0.00016 s⁻¹ | self-cleavage kobs at 40 uM GlcN6P (glucosamine-6-phosphate [5]): 4.81e-05 ± 7.7e-06 s⁻¹ | self-cleavage kobs at 160 uM GlcN6P (glucosamine-6-phosphate [6]): 9.61e-05 ± 2.4e-05 s⁻¹ | self-cleavage kobs at 640 uM GlcN6P (glucosamine-6-phosphate [7]): 0.000173 ± 2.2e-05 s⁻¹ | self-cleavage kobs at 2500 uM GlcN6P (glucosamine-6-phosphate [3]): 0.000498 ± 6.2e-05 s⁻¹ | self-cleavage kobs at 10000 uM GlcN6P (glucosamine-6-phosphate [4]): 0.000516 ± 5.8e-05 s⁻¹

AUAAAAGCGCCAGAACUACAGAAAUGUAGUUGACGAGGAGCAGGUUUAUCGAAUUGUCGGCGGAUGCCUCCAAA [G41C U56G]
kcat (glucosamine-6-phosphate [1]): 0.000101 ± 5.7e-06 s⁻¹ | KM (glucosamine-6-phosphate [2]): 2280 ± 390 µM | self-cleavage kobs at 640 uM GlcN6P (glucosamine-6-phosphate [7]): 2.47e-05 ± 1e-05 s⁻¹ | self-cleavage kobs at 2500 uM GlcN6P (glucosamine-6-phosphate [3]): 4.78e-05 ± 1.5e-05 s⁻¹ | self-cleavage kobs at 10000 uM GlcN6P (glucosamine-6-phosphate [4]): 8.29e-05 ± 1.2e-05 s⁻¹

AUAAAAGCGCCAGAACUACAGAAAUGUAGUUGACGAGGAGUAGGUUUUUCGAAUUUUCGGCGGAUGCCUCCAAA [G41U A48U]
kcat (glucosamine-6-phosphate [1]): 5.64e-05 ± 5.9e-06 s⁻¹ | KM (glucosamine-6-phosphate [2]): 2530 ± 840 µM | self-cleavage kobs at 10000 uM GlcN6P (glucosamine-6-phosphate [4]): 4.45e-05 ± 1.4e-05 s⁻¹

AUAAAAGCGCCAGAACUACAGAAAUGUAGUUGACGAGGAGCAGGUUUAGCGAAUUUUCGGCGGAUGCCUCCAAA [G41C U49G]
kcat (glucosamine-6-phosphate [1]): < 1e-05 s⁻¹ | self-cleavage kobs at 160 uM GlcN6P (glucosamine-6-phosphate [6]): < 1e-05 s⁻¹

AUAAAAGCGCCAGAACUACAGAAAUGUAGUUGACGAGGAGUCGGUUUAUCGAAUUUUCGGCGGAUGCCUCCAAA [G41U A42C]
kcat (glucosamine-6-phosphate [1]): 1.89e-05 ± 1.4e-06 s⁻¹ | KM (glucosamine-6-phosphate [2]): 2750 ± 590 µM | self-cleavage kobs at 40 uM GlcN6P (glucosamine-6-phosphate [5]): < 1e-05 s⁻¹ | self-cleavage kobs at 160 uM GlcN6P (glucosamine-6-phosphate [6]): < 1e-05 s⁻¹

AUAAAAGCGCCAGAACUACAGAAAUGUAGUUGACGAGGAGUAGGCUUAUCGAAUUUUCGGCGGAUGCCUCCAAA [G41U U45C]
kcat (glucosamine-6-phosphate [1]): 0.000379 ± 2.8e-05 s⁻¹ | KM (glucosamine-6-phosphate [2]): 1140 ± 210 µM | self-cleavage kobs at 160 uM GlcN6P (glucosamine-6-phosphate [6]): 4.06e-05 ± 1.5e-05 s⁻¹ | self-cleavage kobs at 640 uM GlcN6P (glucosamine-6-phosphate [7]): 0.000157 ± 4e-05 s⁻¹ | self-cleavage kobs at 2500 uM GlcN6P (glucosamine-6-phosphate [3]): 0.000273 ± 5.6e-05 s⁻¹ | self-cleavage kobs at 10000 uM GlcN6P (glucosamine-6-phosphate [4]): 0.000331 ± 4.7e-05 s⁻¹

AUAAAAGCGCCAGAACUACAGAAAUGUAGUUGACGAGGAGUAGGUCUAUCGAAUUUUCGGCGGAUGCCUCCAAA [G41U U46C]
kcat (glucosamine-6-phosphate [1]): 8.91e-05 ± 1.3e-06 s⁻¹ | KM (glucosamine-6-phosphate [2]): 676 ± 50 µM | self-cleavage kobs at 640 uM GlcN6P (glucosamine-6-phosphate [7]): 4.34e-05 ± 1.9e-05 s⁻¹ | self-cleavage kobs at 2500 uM GlcN6P (glucosamine-6-phosphate [3]): 7.05e-05 ± 1.8e-05 s⁻¹ | self-cleavage kobs at 10000 uM GlcN6P (glucosamine-6-phosphate [4]): 8.33e-05 ± 1.3e-05 s⁻¹

AUAAAAGCGCCAGAACUACAGAAAUGUAGUUGACGAGGAGCAGGUUUAUCGAAUUUUCGGCGGAUACCUCCAAA [G41C G66A]
kcat (glucosamine-6-phosphate [1]): 0.00127 ± 0.00038 s⁻¹ | KM (glucosamine-6-phosphate [2]): 4000 ± 1900 µM | self-cleavage kobs at 160 uM GlcN6P (glucosamine-6-phosphate [6]): 6.76e-05 ± 2.3e-05 s⁻¹ | self-cleavage kobs at 640 uM GlcN6P (glucosamine-6-phosphate [7]): 0.00013 ± 3.9e-05 s⁻¹ | self-cleavage kobs at 2500 uM GlcN6P (glucosamine-6-phosphate [3]): 0.000621 ± 0.00011 s⁻¹ | self-cleavage kobs at 10000 uM GlcN6P (glucosamine-6-phosphate [4]): 0.000851 ± 0.00016 s⁻¹
